Laboratory results reported in publication PMC2719906 (Nature, 2008).

T1: WASP GBD (GTPase binding domain, residues 242-310) (UniProt P42768 242-310)
T1 sequence (looked up): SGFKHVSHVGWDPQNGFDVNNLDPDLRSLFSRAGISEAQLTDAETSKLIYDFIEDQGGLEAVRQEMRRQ

B1: N-WASPC (N-WASP residues 193-501) (domain or fragment)
chain: KRLTKADIGTPSNFQHIGHVGWDPNTGFDLNNLDPELKNLFDMCGISEAQLKDRETSKVIYDFIEKTGGVEAVKNELRRQAPPPPPPSRGGPPPPPPPPHSSGPPPPPARGRGAPPPPPSRAPTAAPPPPPPSRPGVVVPPPPPNRMYPPPPPALPSSAPSGPPPPPPLSMAGSTAPPPPPPPPPPPGPPPPPGLPSDGDHQVPASSGNKAALLDQIREGAQLKKVEQNSRPVSCSGRDALLDQIRQGIQLKSVSDGQESTPPTPAPTSGIVGALMEVMQKRSKAIHSSDEDEDDDDEEDFQDDDEWED

Columns and labels:
[1] = biological target: B1; assay: ITC
[2] = biological target: T1, WASP GBD (GTPase binding domain, …); assay: NMR titration
[3] = biological target: EspFU R47 (full 47-residue fifth repeat of EspFU) (enterohaemorrhagic E. coli (EHEC, …, UniProt P0DJ88 268-314)); assay: ITC

Row | Binder | Kd [1] [nM] | stoichiometry N [2] | Kd [3] [nM]
1 | LPDVAQRLMQHLAEHGIQ [EspFU R18 peptide] | 4000 | – | –
2 | LPDVAQRLMQHLAEHGIQPARNMAEHIPPAPNW (domain or fragment) [EspFU R33 (N-terminal 33-residue fragment of the fifth repeat)] | 35 | 1 EspFU:GBD | –
3 | B1 | – | – | 35
